Data reported in patent US20260109775A1 (Eli Lilly, published 2026).
Blank lines part the entries; values can stand above or below the binder they belong to.

What was measured:
[1] = biological target: T1, Cynomolgus monkey CD137 expressed on stable human 293 cells (cynomolgus monkey); assay: flow cytometry on 293 cells expressing cynomolgus monkey CD137, antibody at 0.5 micrograms/mL, MFI against control IgG
T1 construct: whole, on cells; also called Cyno-CD137
Excerpt: The ability of the antibodies disclosed herein to bind to cell surface cynomolgus monkey CD137 can be measured using a flow cytometric assay. Cynomolgus monkey CD137 expressing stable cells are generated by transfecting Cyno-CD137 receptor plasmid DNA into human 293 cells (ATCC) using Lipofectamine™ 2000 reagent (Invitrogen™) per manufacturer's protocol. Stable cells are selected using 0.5 micrograms/mL puromycin in Dulbecoo's Modified Eagle's Medium containing 10% fetal bovine serum and 1% GlutaMAX™. For flow cytometry, confluent adherent cells are detached using Gibco® Cell Dissociation Buffer (Life Technologies), blocked in FACS buffer (phosphate buffered saline containing 3% fetal bovine serum) for 1 h at 4° C., and then transferred into a 96-well round-bottom plate at a density of 1×10⁵ cells/well.
After washing in FACS buffer, secondary antibody R-phycoerythrin conjugated goat anti-human IgG, F(ab′)₂ fragment specific antibody (Jackson ImmunoResearch Laboratories) is added at a 1:200 dilution and cells are incubated at 4° C. for 30 minutes. Cells are washed and live/dead cell staining is performed using LIVE/DEAD® Fixable Far Red Dead Cell Stain kit (Life Technologies) per manufacturer's protocol. […] Flow cytometry data is analyzed using FlowJo® Software. Mean fluorescence intensity (MFI) ratio is calculated as the (MFI of Experimental antibody)/(MFI of the control IgG).

[2] = biological target: Human CD137 expressed on stable human 293 cells (human, UniProt Q07011 24-255); assay: cell-based or functional assay
Sequence of Human CD137 expressed on stable human 293 cells (Q07011 24-255): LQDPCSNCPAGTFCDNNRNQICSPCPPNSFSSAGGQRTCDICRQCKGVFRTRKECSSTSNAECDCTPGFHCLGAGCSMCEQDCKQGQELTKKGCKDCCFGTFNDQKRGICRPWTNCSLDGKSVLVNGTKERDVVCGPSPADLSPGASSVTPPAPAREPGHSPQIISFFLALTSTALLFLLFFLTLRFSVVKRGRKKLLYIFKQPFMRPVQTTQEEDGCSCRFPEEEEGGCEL

- MFI ratio [1]: 0.94
- NF-kappaB luciferase reporter, max activity [2]: 115%
B1: BMS20H4.9 (antibody, human IgG4 S228P, kappa, V domains shown)
VH: QVQLQQWGAGLLKPSETLSLTCAVYGGSFSGYYWSWIRQSPEKGLEWIGEINHGGYVTYNPSLESRVTISVDTSKNQFSLKLSSVTAADTAVYYCARDYGPGNYDWYFDLWGRGTLVTVSS
VL: EIVLTQSPATLSLSPGERATLSCRASQSVSSYLAWYQQKPGQAPRLLIYDASNRATGIPARFSGSGSGTDFTLTISSLEPEDFAVYYCQQRSNWPPALTFGGGTKVEIKR
notes: Comparator antibody, previously described in U.S. Pat. No. 7,288,638

- NF-kappaB luciferase reporter, max activity [2]: 63.4%
B2: Antibody A1 (antibody, human IgG1, kappa)
heavy: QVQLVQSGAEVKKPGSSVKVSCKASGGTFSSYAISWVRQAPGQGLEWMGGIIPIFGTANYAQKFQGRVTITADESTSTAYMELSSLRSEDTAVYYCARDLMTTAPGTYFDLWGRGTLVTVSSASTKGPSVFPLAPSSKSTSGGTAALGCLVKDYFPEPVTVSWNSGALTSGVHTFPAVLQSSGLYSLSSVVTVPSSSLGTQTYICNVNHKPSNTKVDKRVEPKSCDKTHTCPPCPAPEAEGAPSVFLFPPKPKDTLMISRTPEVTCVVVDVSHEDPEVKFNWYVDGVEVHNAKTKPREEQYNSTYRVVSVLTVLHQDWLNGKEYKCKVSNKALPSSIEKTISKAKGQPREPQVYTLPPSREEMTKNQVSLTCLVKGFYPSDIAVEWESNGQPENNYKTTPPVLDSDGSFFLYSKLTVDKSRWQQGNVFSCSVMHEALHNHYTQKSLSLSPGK
light: AIRMTQSPPSLSASVGDRVTITCQASQDIGNSLGWYQQKPGKAPKLVIFDASDLETGVPSRFSGSGSGTDFSLTISSLQPEDFATYYCQQGNSFPLTFGQGTRLEIKRTVAAPSVFIFPPSDEQLKSGTASVVCLLNNFYPREAKVQWKVDNALQSGNSQESVTEQDSKDSTYSLSSTLTLSKADYEKHKVYACEVTHQGLSSPVTKSFNRGEC

- NF-kappaB luciferase reporter, max activity [2]: 72.3%
B3: Antibody A2 (antibody, human IgG1, kappa)
heavy: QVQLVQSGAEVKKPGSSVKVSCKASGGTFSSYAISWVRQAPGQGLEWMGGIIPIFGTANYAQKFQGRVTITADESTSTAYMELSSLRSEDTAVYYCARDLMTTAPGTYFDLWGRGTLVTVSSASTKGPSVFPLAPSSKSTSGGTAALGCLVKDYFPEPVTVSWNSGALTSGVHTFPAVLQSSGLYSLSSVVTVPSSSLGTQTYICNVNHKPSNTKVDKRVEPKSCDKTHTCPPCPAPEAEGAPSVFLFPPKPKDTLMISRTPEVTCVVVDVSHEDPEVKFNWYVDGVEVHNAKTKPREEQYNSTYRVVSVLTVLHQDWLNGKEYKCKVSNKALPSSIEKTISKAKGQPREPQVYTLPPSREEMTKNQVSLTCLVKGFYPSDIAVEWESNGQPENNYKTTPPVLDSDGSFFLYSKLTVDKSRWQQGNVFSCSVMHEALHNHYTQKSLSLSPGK
light: IRMTQSPPSLSASVGDRVTITCQASQDIGNSLGWYQQKPGKAPKLVIFDASDLETGVPSRFSGSGSGTDFSLTISSLQPEDFATYYCQQGNSFPLTFGQGTRLEIKRTVAAPSVFIFPPSDEQLKSGTASVVCLLNNFYPREAKVQWKVDNALQSGNSQESVTEQDSKDSTYSLSSTLTLSKADYEKHKVYACEVTHQGLSSPVTKSFNRGEC
